Results taken from paper PMC8951703, “A multifunctional enolase mediates cytoadhesion and interaction with host plasminogen and fibronectin in Mycoplasma hyorhinis” (Veterinary Research, 2022).

Molecular target: T1, Recombinant M. hyorhinis enolase, wild-type (Mycoplasma hyorhinis (strain HUB-1), UniProt P0DXB0 1-450)
T1 construct: enolase of Mycoplasma hyorhinis strain HUB-1, full-length gene MHR_0469 of GenBank CP002170.1, codon-optimized and synthesized; the C-terminal residues are K451 and K452; also called rEno; rEno WT
Experiment: SPR; plasminogen or fibronectin immobilised on CM5 chips by amine coupling (600 RU); recombinant enolase proteins 0-4000 nM injected at 30 uL/min for 180 s, 20 °C, dissociation 1000 s; 10 mM HEPES, 150 mM NaCl, 3 mM EDTA, 0.05% surfactant P20; Biacore X100
Details: both partners purified

B1: plasminogen (natural protein)
chain: EPLDDYVNTQGASLFSVTKKQLGAGSIEECAAKCEEDEEFTCRAFQYHSKEQQCVIMAENRKSSIIIRMRDVVLFEKKVYLSECKTGNGKNYRGTMSKTKNGITCQKWSSTSPHRPRFSPATHPSEGLEENYCRNPDNDPQGPWCYTTDPEKRYDYCDILECEEECMHCSGENYDGKISKTMSGLECQAWDSQSPHAHGYIPSKFPNKNLKKNYCRNPDRELRPWCFTTDPNKRWELCDIPRCTTPPPSSGPTYQCLKGTGENYRGNVAVTVSGHTCQHWSAQTPHTHNRTPENFPCKNLDENYCRNPDGKRAPWCHTTNSQVRWEYCKIPSCDSSPVSTEQLAPTAPPELTPVVQDCYHGDGQSYRGTSSTTTTGKKCQSWSSMTPHRHQKTPENYPNAGLTMNYCRNPDADKGPWCFTTDPSVRWEYCNLKKCSGTEASVVAPPPVVLLPDVETPSEEDCMFGNGKGYRGKRATTVTGTPCQDWAAQEPHRHSIFTPETNPRAGLEKNYCRNPDGDVGGPWCYTTNPRKLYDYCDVPQCAAPSFDCGKPQVEPKKCPGRVVGGCVAHPHSWPWQVSLRTRFGMHFCGGTLISPEWVLTAAHCLEKSPRPSSYKVILGAHQEVNLEPHVQEIEVSRLFLEPTRKDIALLKLSSPAVITDKVIPACLPSPNYVVADRTECFITGWGETQGTFGAGLLKEAQLPVIENKVCNRYEFLNGRVQSTELCAGHLAGGTDSCQGDSGGPLVCFEKDKYILQGVTSWGLGCARPNKPGVYVRVSRFVTWIEGVMRNN
Q: B1 was tested. Which Kd did it give?
A: Its Kd is 1.4 ± 0.07 nM.
